T1: MUC16-nub ectodomain antigen (human MUC16 membrane proximal domain P13810-P14451 having a myc-myc-his tag) (human)
T1 chain: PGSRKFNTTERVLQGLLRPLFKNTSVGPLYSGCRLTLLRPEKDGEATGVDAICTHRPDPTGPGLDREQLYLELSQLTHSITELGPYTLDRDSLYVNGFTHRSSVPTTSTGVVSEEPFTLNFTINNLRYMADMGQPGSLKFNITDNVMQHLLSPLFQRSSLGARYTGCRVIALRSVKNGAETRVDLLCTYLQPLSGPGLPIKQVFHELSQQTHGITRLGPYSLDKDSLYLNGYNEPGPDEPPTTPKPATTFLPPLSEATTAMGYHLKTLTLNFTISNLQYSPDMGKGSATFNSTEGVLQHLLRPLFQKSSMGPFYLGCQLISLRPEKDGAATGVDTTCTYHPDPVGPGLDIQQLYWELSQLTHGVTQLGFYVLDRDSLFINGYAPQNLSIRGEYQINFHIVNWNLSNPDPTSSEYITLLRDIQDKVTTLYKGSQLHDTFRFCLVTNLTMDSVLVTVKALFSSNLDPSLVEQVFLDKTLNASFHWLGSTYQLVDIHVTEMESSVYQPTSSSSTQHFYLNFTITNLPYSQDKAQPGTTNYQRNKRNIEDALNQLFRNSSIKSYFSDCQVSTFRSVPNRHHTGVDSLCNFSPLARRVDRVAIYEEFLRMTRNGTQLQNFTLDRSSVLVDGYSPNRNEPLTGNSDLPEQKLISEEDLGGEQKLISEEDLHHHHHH

T2: MUC16 ectodomain stably expressed on engineered RD tumor cells (high, medium or low levels) (human)
T2 chain: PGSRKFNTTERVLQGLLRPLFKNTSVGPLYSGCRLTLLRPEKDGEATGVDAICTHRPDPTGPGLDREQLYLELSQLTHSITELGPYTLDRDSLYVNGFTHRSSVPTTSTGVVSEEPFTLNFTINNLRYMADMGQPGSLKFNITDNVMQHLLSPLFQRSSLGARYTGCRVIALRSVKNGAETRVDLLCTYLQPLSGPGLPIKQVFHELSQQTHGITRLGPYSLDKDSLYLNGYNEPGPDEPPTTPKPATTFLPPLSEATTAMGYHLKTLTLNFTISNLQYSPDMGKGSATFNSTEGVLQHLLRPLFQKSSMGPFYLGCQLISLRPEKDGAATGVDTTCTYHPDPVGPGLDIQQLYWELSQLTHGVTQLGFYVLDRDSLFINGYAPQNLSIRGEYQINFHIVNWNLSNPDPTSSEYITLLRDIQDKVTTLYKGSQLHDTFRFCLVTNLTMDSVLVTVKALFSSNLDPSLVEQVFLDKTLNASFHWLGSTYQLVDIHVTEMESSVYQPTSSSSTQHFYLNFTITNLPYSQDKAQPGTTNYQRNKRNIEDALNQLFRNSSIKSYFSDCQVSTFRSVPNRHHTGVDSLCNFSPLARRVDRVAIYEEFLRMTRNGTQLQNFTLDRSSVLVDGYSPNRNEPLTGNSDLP

B1: pBB4015 CAR (8808 L-H; BBz) (other)
chain: EIVLTQSPDTLSLSPGERATLSCRASQSLSSNYLAWYRQKPGQAPRLLIYGISSRATGIPDRFSGSGSGTDFTLTISRLEPEDFAVYYCQQYGSSPWTFGQGTKVEIKGGGGSGGGGSGGGGSQVQLVESGGGVVQPGRSLRLSCVASGFTFSNYGIHWVRQAPGKGLEWVAVISDDGSFKFYADSVKGRFTISRDNSKNTLYLQMNSLRVEDSAVYHCAKWQHNWNDGGFDYWGQGTLVTVSSTTTPAPRPPTPAPTIASQPLSLRPEACRPAAGGAVHTRGLDFACDIYIWAPLAGTCGVLLLSLVITLYCKRGRKKLLYIFKQPFMRPVQTTQEEDGCSCRFPEEEEGGCELRVKFSRSADAPAYQQGQNQLYNELNLGRREEYDVLDKRRGRDPEMGGKPRRKNPQEGLYNELQKDKMAEAYSEIGMKGERRRGKGHDGLYQGLSTATKDTYDALHMQALPPR
B2: Anti-MUC16 7135 (antibody, V domains shown)
VH: EVQLVESGGGLVQAGGSLRLSCAASGFTFSYHEMNWVRQAPGKGLEWVSYIGSRGTTKHYADPVKGRFTISRDNAKNSLYLQMNSLRAEDTAVYYCASEVGSILGYSMDVWGQGTTVTVSS
VL: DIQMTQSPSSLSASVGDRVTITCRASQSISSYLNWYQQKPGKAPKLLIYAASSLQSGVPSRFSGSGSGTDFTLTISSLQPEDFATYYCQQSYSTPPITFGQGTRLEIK
notes: also called BBz) and pBB4001 (7135 L-H
B3: Anti-MUC16 8794 (antibody, V domains shown)
VH: QVQLVESGGGLVKPGGSLRLSCAASGFTFRDYSMSWIRQAPGKGLEWVSYVTFFNSAIYYADSVKGRFTISRDNAKNSLYLQMNSLRAEDTAVYYCAREREPIVGGFDYWGQGTLVTVSS
VL: DIQMTQSPSSLSASVGDRVTITCRASQSINSYLNWYQQKPGKAPKLLIYAASSLQGGVPSRFSGGGSGTDFTLTITSLQPEDFATFYCQQSYSSPPITFGQGTRLEIK
notes: also called BBz) and pBB4009 (8794 L-H
B4: Anti-MUC16 8799 (antibody, V domains shown)
VH: EVQLVESGGGLEQPGRSLRLSCTASGFAFGDHTMSWVRQAPGKGLEWVGFIRSRAYGGTTEYAASVKGRFTISRDDSKSIAYLQMDSLKTEDTAVYYCTSGGYDSSLHYYYYYHGMDVWGRGTTVTVSS
VL: EIVLTQSPGTLSLSPGERATLSCRASQSITSSYLAWYQQRPGQAPRLLIYGASSRATGIPDRFSGSGSGTDFTLTISRLEPEDFAVYYCQQYGSSPWTFGQGTKVEIK
notes: also called BBz) and pBB4011 (8799 L-H
B5: Anti-MUC16 8804 (antibody, V domains shown)
VH: EVQLVESGGGLVQPGRSLRLSCTGSGLTFGDYGMSWVRQAPGKGLEWVGFIRSKGYGGTTEYAASVKGRFTISRDDSKSTAYLQMNSLKTEDTAVYYCTSGGYDSSVHYYYYYYAMDVWGQGTTVTVSS
VL: not shown
notes: also called BBz) and pBB4013 (8804 L-H
B6: Anti-MUC16 8808 (antibody, V domains shown)
VH: QVQLVESGGGVVQPGRSLRLSCVASGFTFSNYGIHWVRQAPGKGLEWVAVISDDGSFKFYADSVKGRFTISRDNSKNTLYLQMNSLRVEDSAVYHCAKWQHNWNDGGFDYWGQGTLVTVSS
VL: EIVLTQSPDTLSLSPGERATLSCRASQSLSSNYLAWYRQKPGQAPRLLIYGISSRATGIPDRFSGSGSGTDFTLTISRLEPEDFAVYYCQQYGSSPWTFGQGTKVEIK
notes: also called BBz) and pBB4015 (8808 L-H
B7: Anti-MUC16 8810 (antibody, V domains shown)
VH: EVQLVESGGALVQPGGSLRLSCAASGFTFSSYAMHWVRQAPGKGLEFVSTISYNGGTTYYADSVKGRFTVSRDNSKNTVFLRMGSLRTEDMAVYYCARAAAPWGQGTLVTVSS
VL: EIVLTQSPDTLSLSPGERATLSCRASQSVSNRYLAWYQQKPGQAPRLLIYGASSRATGIPDRFSGSGSGTDFTLTISRLEPEDFAVYYCHQYGSSPWTFGQGTKVEIK
notes: also called BBz) and pBB4017 (8810 L-H
B8: Anti-MUC16 8813 (antibody, V domains shown)
VH: QVQLVQSGAEVKKPGASVKVSCKAFGYTLTGYYIHWVRQAPGQGLEWMGWINPNNGGTNYAQKFQGRVTMTRDKSISTAYMELSRLRSDDTAVYYCARSLELLPDGMDVWGQGTTVTVSS
VL: not shown
notes: also called BBz) and pBB4019 (8813 L-H
B9: Anti-MUC16 7138 (antibody, V domains shown)
VH: QVQLVQSGAEVKKPGASVKVSCKASGYTFTSSDINWVRQATGQGLEWVGWMNPNYGYTGSARKFQDRVTMTRNTSLSTAYLELHSLRSEDTAVYYCARVTYCSSVTSCFRPFTYWGQGTLVTVSA
VL: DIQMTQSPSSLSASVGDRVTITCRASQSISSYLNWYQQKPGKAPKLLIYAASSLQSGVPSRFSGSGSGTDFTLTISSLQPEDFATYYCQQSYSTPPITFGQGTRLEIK
notes: also called BBz) and pBB4003 (7138 L-H
B10: Anti-MUC16 8755 (antibody, V domains shown)
VH: EVQLVESGGGLVQPGRSLRLSCAASGFTFNDYAMHWVRQSPGKGLEWVSGIDWNGGSIDYADSVKGRFTISRDTAKNSLYLQMNSLKVEDTALYYCAKDIGHWNYIGGMDVWGQGTTVTVSS
VL: DIQMTQSPSSLSASVGDRVTITCRASQSINIYLNWYQQKPGKAPKFLIYAASSLQTGVPSRFSGSGSGTDFTLTISSLEPEDFATYYCQHSYSTPPITFGQGTRLEIK
notes: also called BBz) and pBB4005 (8755 L-H
B11: Anti-MUC16 8767 (antibody, V domains shown)
VH: QVQLVESGGGLVKPGGSLRLSCAASGFTFSNYYMSWVRQAPGKGLEWISYISGRGSTIFYADSVKGRITISRDNAKNSLFLQMNSLRAEDTAVYFCVKDRGGYSPYWGQGTLVTVSS
VL: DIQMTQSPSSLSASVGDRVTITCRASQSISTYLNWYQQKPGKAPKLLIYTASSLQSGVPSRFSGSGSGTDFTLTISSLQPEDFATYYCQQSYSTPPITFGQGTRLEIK
notes: also called BBz) and pBB4007 (8767 L-H

Molecular target: T1, MUC16-nub ectodomain antigen (human …)
Test: cell-based or functional assay

Row | Binder | EC50 (read off the curve); IFNγ release of BB4015 CAR T cells against the coating concentration of MUC16 nub
1 | B1 | ~50 ng/mL

Molecular target: T1, MUC16-nub ectodomain antigen (human …)
Test: Binder Kd of Table 3; method and antigen not described

Row | Binder | Kd
2 | B2 | 10.5 nM
3 | B3 | 0.554 nM
4 | B4 | 0.826 nM
5 | B5 | 1.86 nM
6 | B6 | 0.277 nM
7 | B7 | 1.12 nM
8 | B8 | 0.32 nM
9 | B9 | 0.321 nM
10 | B10 | 0.124 nM
11 | B11 | 1.01 nM

Molecular target: T2, MUC16 ectodomain stably expressed on …
Test: cell-based or functional assay

Row | Binder | percent (%) of tumor cell killing, RD low antigen positive tumor cells, 2.5:1 E:T ratio, 72 hours, impedance analyzer | percent (%) of tumor cell killing, RD medium or high antigen positive tumor cells, all E:T ratios, 72 hours, impedance analyzer
12 | B1 | < 60 % cytotoxicity | > 70 % cytotoxicity
